Results on 3 molecules are retold here after PMC7246612, “The In Vitro Non-Tetramerizing ZapA^I83E Mutant Is Unable to Recruit ZapB to the Division Plane In Vivo in Escherichia coli” (International Journal of Molecular Sciences, 2020).

Assay [1] concerns the target T1, mKO–PBP1a (inner membrane protein PBP1a fused to mKO) (UniProt P02918 1-850).
T1 construct: PBP1a, inner membrane protein; Negative control partner in the FRET assay; also called pBB004; pSAV–mKO–PBP1a; source: E. coli TB28 ∆zapA, expressed from plasmid pBB004, in living cells; not shown: mKO, N-terminal, kept
T1 sequence (looked up): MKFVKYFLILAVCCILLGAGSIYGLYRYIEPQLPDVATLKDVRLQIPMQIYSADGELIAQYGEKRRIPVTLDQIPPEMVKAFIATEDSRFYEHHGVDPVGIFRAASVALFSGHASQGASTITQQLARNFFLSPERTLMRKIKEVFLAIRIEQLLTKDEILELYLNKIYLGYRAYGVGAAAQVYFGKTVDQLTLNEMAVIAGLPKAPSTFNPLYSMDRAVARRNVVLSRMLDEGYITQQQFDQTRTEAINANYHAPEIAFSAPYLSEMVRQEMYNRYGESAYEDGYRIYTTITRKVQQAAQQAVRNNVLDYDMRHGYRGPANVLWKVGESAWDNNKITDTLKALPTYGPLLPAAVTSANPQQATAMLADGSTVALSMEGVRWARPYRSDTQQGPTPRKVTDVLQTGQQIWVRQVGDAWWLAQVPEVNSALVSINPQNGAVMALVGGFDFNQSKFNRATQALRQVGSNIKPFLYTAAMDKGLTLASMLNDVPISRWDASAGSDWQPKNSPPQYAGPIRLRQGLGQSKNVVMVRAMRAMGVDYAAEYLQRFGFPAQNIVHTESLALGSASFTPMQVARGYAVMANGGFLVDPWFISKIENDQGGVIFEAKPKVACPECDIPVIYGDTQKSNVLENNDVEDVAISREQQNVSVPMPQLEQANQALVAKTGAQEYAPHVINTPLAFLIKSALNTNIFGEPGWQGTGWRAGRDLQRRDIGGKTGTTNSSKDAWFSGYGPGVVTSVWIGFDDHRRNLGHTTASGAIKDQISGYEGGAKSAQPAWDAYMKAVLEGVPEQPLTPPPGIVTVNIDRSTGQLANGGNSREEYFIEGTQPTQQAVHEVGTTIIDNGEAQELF
Briefly: FRET or BRET; in vivo FRET in E. coli TB28 ∆zapA cells; mKO fusion (donor) and mCh fusion (acceptor) expressed from plasmids; energy transfer efficiency (EfA) by spectral unmixing. The settings on record: partners not purified. (BRET reads energy transfer from a luciferase to a nearby fluorophore.)

Assay [2] addresses T2, mKO–FtsZ (filamenting temperature-sensitive Z fused to mKO) (Escherichia coli, UniProt P0A9A6 1-383).
T2 construct: filamenting temperature-sensitive Z (FtsZ), Escherichia coli; also called pSAV072; pSAV–mKO–FtsZ; source: E. coli TB28 ∆zapA or WT strain, expressed from plasmid pSAV072, in living cells; not shown: mKO, N-terminal, kept
T2 sequence (looked up): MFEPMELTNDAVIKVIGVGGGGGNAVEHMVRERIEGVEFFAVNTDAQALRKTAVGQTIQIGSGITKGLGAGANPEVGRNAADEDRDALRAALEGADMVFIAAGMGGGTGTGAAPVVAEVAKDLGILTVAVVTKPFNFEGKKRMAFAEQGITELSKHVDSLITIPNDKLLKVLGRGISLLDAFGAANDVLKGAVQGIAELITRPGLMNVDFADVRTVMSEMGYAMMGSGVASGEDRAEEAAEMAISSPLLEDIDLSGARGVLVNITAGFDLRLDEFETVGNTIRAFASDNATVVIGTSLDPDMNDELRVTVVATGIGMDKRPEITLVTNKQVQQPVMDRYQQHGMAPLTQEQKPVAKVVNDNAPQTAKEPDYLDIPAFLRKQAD
The description is as above. The settings on record: partners not purified.

Substitutions are numbered along the chain they refer to. In names and notes the source's numbering stands.

B1: mCh–PBP1b (PBP1b fused to mCh) (natural protein, UniProt P02919 1-844, looked up)
chain: MAGNDREPIGRKGKPTRPVKQKVSRRRYEDDDDYDDYDDYEDEEPMPRKGKGKGKGRKPRGKRGWLWLLLKLAIVFAVLIAIYGVYLDQKIRSRIDGKVWQLPAAVYGRMVNLEPDMTISKNEMVKLLEATQYRQVSKMTRPGEFTVQANSIEMIRRPFDFPDSKEGQVRARLTFDGDHLATIVNMENNRQFGFFRLDPRLITMISSPNGEQRLFVPRSGFPDLLVDTLLATEDRHFYEHDGISLYSIGRAVLANLTAGRTVQGASTLTQQLVKNLFLSSERSYWRKANEAYMALIMDARYSKDRILELYMNEVYLGQSGDNEIRGFPLASLYYFGRPVEELSLDQQALLVGMVKGASIYNPWRNPKLALERRNLVLRLLQQQQIIDQELYDMLSARPLGVQPRGGVISPQPAFMQLVRQELQAKLGDKVKDLSGVKIFTTFDSVAQDAAEKAAVEGIPALKKQRKLSDLETAIVVVDRFSGEVRAMVGGSEPQFAGYNRAMQARRSIGSLAKPATYLTALSQPKIYRLNTWIADAPIALRQPNGQVWSPQNDDRRYSESGRVMLVDALTRSMNVPTVNLGMALGLPAVTETWIKLGVPKDQLHPVPAMLLGALNLTPIEVAQAFQTIASGGNRAPLSALRSVIAEDGKVLYQSFPQAERAVPAQAAYLTLWTMQQVVQRGTGRQLGAKYPNLHLAGKTGTTNNNVDTWFAGIDGSTVTITWVGRDNNQPTKLYGASGAMSIYQRYLANQTPTPLNLVPPEDIADMGVDYDGNFVCSGGMRILPVWTSDPQSLCQQSEMQQQPSGNPFDQSSQPQQQPQQQPAQQEQKDSDGVAGWIKDMFGSN
notes: PBP1b; Negative control in the FRET assay; also called pBB008; pTHV–mCh–PBP1b; source: E. coli TB28 ∆zapA, expressed from plasmid pBB008, in living cells; not shown: mCh, N-terminal, kept
Turning to B1, the “EfA (energy transfer efficiency)” value in assay [1] is under 1.7%.

B2: mCh–ZapA (wild-type Z-associated protein A fused to mCh) (natural protein, Escherichia coli, UniProt P0ADS2 1-109, looked up)
chain: MSAQPVDIQIFGRSLRVNCPPDQRDALNQAADDLNQRLQDLKERTRVTNTEQLVFIAALNISYELAQEKAKTRDYAASMEQRIRMLQQTIEQALLEQGRITEKTNQNFE
notes: Z-associated protein A (ZapA), Escherichia coli; also called mCh–ZapA^WT; ZapA^WT; source: E. coli TB28 ∆zapA or WT strain, expressed from plasmid pSAV077, in living cells; not shown: mCh, N-terminal, kept
On to B2, for which the “EfA (energy transfer efficiency)” value was under 1.7% in assay [1] and 4% in assay [2].

B3: mCh–ZapA^I83E (in vitro non-tetramerizing ZapA mutant fused to mCh) (natural protein, Escherichia coli, UniProt P0ADS2 1-109, looked up)
chain: B2 chain with I83E
notes: Z-associated protein A (ZapA), Escherichia coli, with I83E; made by exchanging zapA in pSAV077 with zapA^I83E from pRP071; also called pNM137; pTHV–mCh–ZapA^I83E; source: E. coli TB28 ∆zapA or WT strain, expressed from plasmid pNM137, in living cells; not shown: mCh, N-terminal, kept
For B3, the “EfA (energy transfer efficiency)” value in assay [1] was under 1.7%.
